{"source": "paper doi:10.1101/2022.11.20.517256", "about": "(bioRxiv, 2022)", "proteins": {"B1": {"name": "Erwinia ligand-gated ion channel (ELIC), wild type (natural protein)", "chain": "APADNAADARPVDVSVSIFINKIYGVNTLEQTYKVDGYIVAQWTGKPRKTPGDKPLIVENTQIERWINNGLWVPALEFINVVGSPDTGNKRLMLFPDGRVIYNARFLGSFSNDMDFRLFPFDRQQFVLELEPFSYNNQQLRFSDIQVYTENIDNEEIDEWWIRKASTHISDIRYDHLSSVQPNQNEFSRITVRIDAVRNPSYYLWSFILPLGLIIAASWSVFWLESFSERLQTSFTLMLTVVAYAFYTSNILPRLPYTTVIDQMIIAGYGSIFAAILLIIFAHHRQAMGVEDDLLIQRCRLAFPLGFLAIGCVLVIRGITL"}}, "biological_target": "the molecule itself", "test": "cryo-EM structure"}
{"protein": "B1", "values": [{"measurement": "stoichiometry N", "result": 5}]}
